B1: anti-CD33 chimeric antibody KM4054 (antibody, V domains shown)
VH: QLQETGPGLVKPSQSLSLTCSVTGYTITSGYEWTWIRKFPGNRMEWMGYINSSGSTDYNPSLKSRVSITRDTSKNQFFLQLNSVTTEDTATYFCTRWDRWGPGVMVTVSS
VL: DVVLTQTLVAQPVRLGDQASISCRSSQSLVHSDGHTYLEWYLQKPGQSPQLLIYEISNRFSGVPDRFSGSGSGSDFTLKISRVEPEDLGLYYCFQGTHDLPTFGGGTKLELK
notes: Expressed in FUT8 knockout CHO cells, so no core fucose
B2: anti-CD33 monoclonal antibody KM4075 (antibody, V domains shown)
VH: QLQESGPGLVKPSQSLSLTCSVTGYTITSGSDWSWIRKFPGNKMEWMGYISYSGNTNYNPSLKSRISITRDTSKNQFFLHLNSVTTADTATYYCTGKGWGQGVMVTVSS
VL: DVVLTQTPVSLSVTLGDQASISCRSSQSLEYSDGYTYLEWYLQKPGHSPQLLIYGVSNRFSGVPDRFIGSGSGTDFTLRISRVEPEDLGVYYCFQATHDPYTFGAGTKLEL
notes: Hybridoma antibody from rat or mouse
B3: anti-CD33 monoclonal antibody KM4074 (antibody, V domains shown)
VH: B1 VH
VL: B1 VL
notes: as for B2
B4: anti-CD33 monoclonal antibody KM4073 (antibody, V domains shown)
VH: QVKLLQSGAALVKPGASVKMSCKVSGYTFTDYWVNWVKQSHGKTLEWIGEIYPNSGATNFNEKFKDKATLTVDRSTSTAYLEFSRLTSEDSAIYYCSLGPYWGQGVMVTVSS
VL: DVVLTQTPPTLSATIGQSVSISCRSSQSLLDSDGQTYLNWFLQRPGQSPQLLIYSVSNLESGVPNRFSGSGSETDFTLKISGVEAEDLGLYYCMQATHAPLTFGSGTNLEIK
notes: as for B2
B5: anti-CD33 monoclonal antibody KM4071 (antibody, V domains shown)
VH: QIQLVQSGPELKKPEETVKISCKASDYTFTDYSIHWVKQAPGKGLKWMGWINTETGETTNADDLKGRFAFSVETSASTAYLQINNLKNEDTATYFCARYRYDASYGMDYWGQGTSVTVSS
VL: STVLTQSPKSMSMSVGERVTLSCKASENVGTYVSWYQQKPEQSPELLIYGSSNRSTGVPDRFTGSGSATDFTLTISSVQAEDLADYHCGQSYSYPPTFGGGTRLEIK
notes: as for B2
B6: modified CD33 chimeric antibody ver.5 (antibody, V domains shown)
VH: B1 VH with S53G
VL: B1 VL
B7: modified CD33 chimeric antibody ver.1 (antibody, V domains shown)
VH: B1 VH with N51Y
VL: B1 VL
B8: modified CD33 chimeric antibody ver.4 (KM4084) (antibody, V domains shown)
VH: B1 VH with S53A
VL: B1 VL
B9: modified CD33 chimeric antibody ver.2 (antibody, V domains shown)
VH: B1 VH with N51S
VL: B1 VL
B10: modified CD33 chimeric antibody ver.3 (antibody, V domains shown)
VH: B1 VH with N51Q
VL: B1 VL
B11: anti-CD33 monoclonal antibody KM4072 (antibody, V domains shown)
VH: QVQLQQSGAELVKPGASVKMSCKASGYTFTTYPIEWMKQNHGKSLEWIGNFHPYNDDTEYNEKFKGKATLTVEKSSSTVYLELSRLTSDDSAVYYCARGYYYAMDYWGQGTSVTVSS
VL: DAVMTQTPLSLPVSLGDQASISCRSSQSLEDSNGNTYLNWYLQKPGQSPQLLIYRVSNRFSGVLDRFSGSGSGTDFTLKISRVEAEDLGVYFCLQLTHVPWTFGGGTKLEIK
notes: as for B2

Where a chain is given by its changes, count along the chain named.

T1 sequence (P20138 other isoform, or with tags, fused parts or gaps limits assumed): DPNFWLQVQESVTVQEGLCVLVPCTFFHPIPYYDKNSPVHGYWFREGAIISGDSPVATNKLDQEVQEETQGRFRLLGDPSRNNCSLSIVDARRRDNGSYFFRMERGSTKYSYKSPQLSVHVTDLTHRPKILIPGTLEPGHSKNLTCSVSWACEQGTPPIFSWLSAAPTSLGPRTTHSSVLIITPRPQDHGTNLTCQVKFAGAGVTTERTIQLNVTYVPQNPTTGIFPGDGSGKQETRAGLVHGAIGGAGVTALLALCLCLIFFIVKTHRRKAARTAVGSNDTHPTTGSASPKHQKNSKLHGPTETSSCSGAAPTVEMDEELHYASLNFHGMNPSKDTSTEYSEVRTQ
T3 sequence (P20138 other isoform, or with tags, fused parts or gaps limits assumed): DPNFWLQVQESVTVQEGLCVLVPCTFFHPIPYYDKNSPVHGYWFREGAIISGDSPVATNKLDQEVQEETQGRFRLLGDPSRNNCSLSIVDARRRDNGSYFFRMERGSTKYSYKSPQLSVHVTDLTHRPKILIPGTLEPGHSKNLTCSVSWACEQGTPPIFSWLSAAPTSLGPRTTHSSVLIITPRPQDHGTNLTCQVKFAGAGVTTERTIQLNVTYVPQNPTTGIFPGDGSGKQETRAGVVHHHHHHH

The first assay has as its target T1, human CD33 on cells (human CD33-expressing CHO/DG44 cell line; CD33-positive cell lines THP-1, NB-4) (human, UniProt P20138 18-364).
T1 construct: The same entry is used here for the endogenous CD33 of THP-1, NB-4 and other leukemia lines; also called hCD33; CD33 transfectant
In words: flow cytometry on THP-1 cells. Background: In flow cytometry, cells or beads pass a laser one at a time.
In the case of B1, the binding result is recorded as “binds”. Same read-out and setting: with B2 the entry was “binds”.

For a further assay, the target named is T2, Recombinant human Siglec-3 (CD33)/Fc Chimera (R&D Systems, catalog number 1137-SL) (human, UniProt P20138 18-259).
T2 construct: Bought product; also called recombinant human CD33-Fc; not shown: Fc part of the bought fusion protein; not described
T2 sequence (P20138 18-259 limits assumed, change not shown): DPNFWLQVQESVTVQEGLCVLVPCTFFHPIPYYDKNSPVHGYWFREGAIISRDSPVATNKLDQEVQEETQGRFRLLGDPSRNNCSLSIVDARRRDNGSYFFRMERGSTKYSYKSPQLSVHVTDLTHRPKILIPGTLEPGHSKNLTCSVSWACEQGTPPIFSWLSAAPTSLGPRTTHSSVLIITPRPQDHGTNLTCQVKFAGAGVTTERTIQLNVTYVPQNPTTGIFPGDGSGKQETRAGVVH
In words: SPR (Biacore T-100), antibody captured on anti-mouse IgG, CD33-Fc as analyte. Background: SPR reads the build-up and loss of mass on a sensor chip optically.
On to B3, for which the binding result was “binds”.

On to B2, for which the binding result is on record as “binds”.

For the molecule B4, the binding result was “binds”. Still for that read-out and setting: with B5 the entry was “binds”.

A further assay concerns the target T3, histidine-tagged soluble human CD33 (hCD33-His) (human, UniProt P20138 18-259).
T3 construct: Human CD33 extracellular region with six histidines at the C-terminus, made in CHO/DG44 cells
Briefly: SPR (Biacore T-100), antibody captured on anti-human IgG, hCD33-His as analyte.
Consider B1, for which the binding result is listed as “binds”. For the molecule B6, the binding result is reported as “binds”. The same measure, in the same setting: the result for B7 reads “binds”; that for B8, “binds”. On the same count and under the same terms, the result for B9 reads “binds”. As to B10, the binding result is “binds”.

The next assay deals with T1, human CD33 on cells (human …). In words: FMAT on human CD33-expressing CHO/DG44 cells, hybridoma supernatant.
As to B3, the binding result was “binds”. For B4, the binding result was “binds”. On the same count and under the same terms, with B5 the entry was “binds”.

Turning to B11, the binding result is recorded as “binds”.

The target of the next assay is T2, Recombinant human Siglec-3 (CD33)/Fc …. In words: binding ELISA, CD33-Fc on the plate. For orientation: ELISA stands for enzyme-linked immunosorbent assay.
As to B1, the binding result is recorded as “binds”.

These data come from patent WO2012074097A1 (dated 2012).
